# Assay results as given in patent US20130005646A1 (Novo Nordisk, published 2013).
# Starred links: 1 amine or outer side, 2 acyl side, 3 side chain; linkers in the order of their positions; H or OH if unused. Positions of bridges follow the written chain, without caps; N, C: chain ends. Groups on a side chain read outwards from the residue. No end group written: not given here. *: point of attachment. X1 = (S)‑4‑Carboxy‑4‑(19-carboxynonadecanoylamino)butyryl, O=C(O)CCCCCCCCCCCCCCCCCCC(=O)N[C@@H](CCC(=O)*)C(=O)O; C20 diacid = O=C(O)CCCCCCCCCCCCCCCCCCC(=O)*; C18 diacid = O=C(O)CCCCCCCCCCCCCCCCC(=O)*; γGlu = O=C(O)[C@H](CCC(=O)[*:2])N[*:1]; AEEA = NCCOCCOCC(=O)O
# T1: human calcitonin (a) receptor (human, UniProt P30988 25-474)
# T1 sequence (looked up): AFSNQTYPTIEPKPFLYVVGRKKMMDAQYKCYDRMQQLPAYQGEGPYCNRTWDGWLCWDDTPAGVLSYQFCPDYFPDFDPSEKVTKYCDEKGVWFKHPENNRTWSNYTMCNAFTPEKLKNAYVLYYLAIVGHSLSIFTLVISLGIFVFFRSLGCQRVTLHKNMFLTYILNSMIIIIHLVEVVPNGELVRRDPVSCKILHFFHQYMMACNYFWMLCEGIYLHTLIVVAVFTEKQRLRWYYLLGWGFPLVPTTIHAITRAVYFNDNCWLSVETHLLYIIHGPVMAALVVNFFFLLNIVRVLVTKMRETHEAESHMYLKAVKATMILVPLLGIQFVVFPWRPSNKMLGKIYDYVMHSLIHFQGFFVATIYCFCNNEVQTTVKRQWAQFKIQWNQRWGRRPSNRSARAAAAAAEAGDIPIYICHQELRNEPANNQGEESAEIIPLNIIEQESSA
# T2: human amylin 3(a) receptor (human calcitonin receptor + RAMP-3) (human, UniProt P30988 25-474; O60896 24-148)
# T2 sequence (looked up) 1: T1 sequence (looked up)
# T2 sequence (looked up) 2: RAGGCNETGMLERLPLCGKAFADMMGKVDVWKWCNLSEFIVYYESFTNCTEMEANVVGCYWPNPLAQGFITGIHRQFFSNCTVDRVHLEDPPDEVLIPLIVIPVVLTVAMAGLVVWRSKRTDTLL
# B1: N-alpha-[(S)-4-Carboxy-4-(19-carboxynonadecanoylamino)butyryl]-[Glu14,Pro37]-pramlintide (peptide)
# peptide: {C20 diacid-γGlu}-KCNTATCATQRLAEFLVHSSNNFGPILPPTNVGSNTP-NH2
# modifications: disulfide 2-7
# SMILES: CC[C@H](C)[C@H](NC(=O)[C@@H]1CCCN1C(=O)CNC(=O)[C@H](Cc1ccccc1)NC(=O)[C@H](CC(N)=O)NC(=O)[C@H](CC(N)=O)NC(=O)[C@H](CO)NC(=O)[C@H](CO)NC(=O)[C@H](Cc1c[nH]cn1)NC(=O)[C@@H](NC(=O)[C@H](CC(C)C)NC(=O)[C@H](Cc1ccccc1)NC(=O)[C@H](CCC(=O)O)NC(=O)[C@H](C)NC(=O)[C@H](CC(C)C)NC(=O)[C@H](CCCNC(=N)N)NC(=O)[C@H](CCC(N)=O)NC(=O)[C@@H](NC(=O)[C@H](C)NC(=O)[C@@H]1CSSC[C@H](NC(=O)[C@H](CCCCN)NC(=O)CC[C@H](NC(=O)CCCCCCCCCCCCCCCCCCC(=O)O)C(=O)O)C(=O)N[C@@H](CC(N)=O)C(=O)N[C@@H]([C@@H](C)O)C(=O)N[C@@H](C)C(=O)N[C@@H]([C@@H](C)O)C(=O)N1)[C@@H](C)O)C(C)C)C(=O)N[C@@H](CC(C)C)C(=O)N1CCC[C@H]1C(=O)N1CCC[C@H]1C(=O)N[C@H](C(=O)N[C@@H](CC(N)=O)C(=O)N[C@H](C(=O)NCC(=O)N[C@@H](CO)C(=O)N[C@@H](CC(N)=O)C(=O)N[C@H](C(=O)N1CCC[C@H]1C(N)=O)[C@@H](C)O)C(C)C)[C@@H](C)O
# B2: N-alpha-[(S)-4-Carboxy-4-(19-carboxynonadecanoylamino)butyryl]-Ser-[Glu14,His17,His35]-pramlintide (peptide)
# peptide: {C20 diacid-γGlu}-SKCNTATCATQRLAEFLHHSSNNFGPILPPTNVGSHTY-NH2
# modifications: disulfide 3-8
# SMILES: CC[C@H](C)[C@H](NC(=O)[C@@H]1CCCN1C(=O)CNC(=O)[C@H](Cc1ccccc1)NC(=O)[C@H](CC(N)=O)NC(=O)[C@H](CC(N)=O)NC(=O)[C@H](CO)NC(=O)[C@H](CO)NC(=O)[C@H](Cc1c[nH]cn1)NC(=O)[C@H](Cc1c[nH]cn1)NC(=O)[C@H](CC(C)C)NC(=O)[C@H](Cc1ccccc1)NC(=O)[C@H](CCC(=O)O)NC(=O)[C@H](C)NC(=O)[C@H](CC(C)C)NC(=O)[C@H](CCCNC(=N)N)NC(=O)[C@H](CCC(N)=O)NC(=O)[C@@H](NC(=O)[C@H](C)NC(=O)[C@@H]1CSSC[C@H](NC(=O)[C@H](CCCCN)NC(=O)[C@H](CO)NC(=O)CC[C@H](NC(=O)CCCCCCCCCCCCCCCCCCC(=O)O)C(=O)O)C(=O)N[C@@H](CC(N)=O)C(=O)N[C@@H]([C@@H](C)O)C(=O)N[C@@H](C)C(=O)N[C@@H]([C@@H](C)O)C(=O)N1)[C@@H](C)O)C(=O)N[C@@H](CC(C)C)C(=O)N1CCC[C@H]1C(=O)N1CCC[C@H]1C(=O)N[C@H](C(=O)N[C@@H](CC(N)=O)C(=O)N[C@H](C(=O)NCC(=O)N[C@@H](CO)C(=O)N[C@@H](Cc1c[nH]cn1)C(=O)N[C@H](C(=O)N[C@@H](Cc1ccc(O)cc1)C(N)=O)[C@@H](C)O)C(C)C)[C@@H](C)O
# B3: N-epsilon1-[(S)-4-Carboxy-4-(17-carboxyheptadecanoylamino)butyryl]-[Glu14,His17,His35]-pramlintide (peptide)
# peptide: K([γGlu-C18 diacid])CNTATCATQRLAEFLHHSSNNFGPILPPTNVGSHTY-NH2
# modifications: disulfide 2-7; N-terminus assumed
# SMILES: CC[C@H](C)[C@H](NC(=O)[C@@H]1CCCN1C(=O)CNC(=O)[C@H](Cc1ccccc1)NC(=O)[C@H](CC(N)=O)NC(=O)[C@H](CC(N)=O)NC(=O)[C@H](CO)NC(=O)[C@H](CO)NC(=O)[C@H](Cc1c[nH]cn1)NC(=O)[C@H](Cc1c[nH]cn1)NC(=O)[C@H](CC(C)C)NC(=O)[C@H](Cc1ccccc1)NC(=O)[C@H](CCC(=O)O)NC(=O)[C@H](C)NC(=O)[C@H](CC(C)C)NC(=O)[C@H](CCCNC(=N)N)NC(=O)[C@H](CCC(N)=O)NC(=O)[C@@H](NC(=O)[C@H](C)NC(=O)[C@@H]1CSSC[C@H](NC(=O)[C@@H](N)CCCCNC(=O)CC[C@H](NC(=O)CCCCCCCCCCCCCCCCC(=O)O)C(=O)O)C(=O)N[C@@H](CC(N)=O)C(=O)N[C@@H]([C@@H](C)O)C(=O)N[C@@H](C)C(=O)N[C@@H]([C@@H](C)O)C(=O)N1)[C@@H](C)O)C(=O)N[C@@H](CC(C)C)C(=O)N1CCC[C@H]1C(=O)N1CCC[C@H]1C(=O)N[C@H](C(=O)N[C@@H](CC(N)=O)C(=O)N[C@H](C(=O)NCC(=O)N[C@@H](CO)C(=O)N[C@@H](Cc1c[nH]cn1)C(=O)N[C@H](C(=O)N[C@@H](Cc1ccc(O)cc1)C(N)=O)[C@@H](C)O)C(C)C)[C@@H](C)O
# B4: N-epsilon17-[2-(2-{2-[2-(2-{2-[(S)-4-Carboxy-4-(17-carboxyheptadecanoylamino)butyrylamino]ethoxy}ethoxy)acetylamino]ethoxy}ethoxy)acetyl]-[Glu14,Lys17,Ser21,Glu … (peptide)
# peptide: KCNTATCATQRLAEFLK([AEEA-AEEA-γGlu-C18 diacid])HSSSNFGPILPPTNVGSETY-NH2
# modifications: disulfide 2-7; N-terminus assumed
# SMILES: CC[C@H](C)[C@H](NC(=O)[C@@H]1CCCN1C(=O)CNC(=O)[C@H](Cc1ccccc1)NC(=O)[C@H](CC(N)=O)NC(=O)[C@H](CO)NC(=O)[C@H](CO)NC(=O)[C@H](CO)NC(=O)[C@H](Cc1c[nH]cn1)NC(=O)[C@H](CCCCNC(=O)COCCOCCNC(=O)COCCOCCNC(=O)CC[C@H](NC(=O)CCCCCCCCCCCCCCCCC(=O)O)C(=O)O)NC(=O)[C@H](CC(C)C)NC(=O)[C@H](Cc1ccccc1)NC(=O)[C@H](CCC(=O)O)NC(=O)[C@H](C)NC(=O)[C@H](CC(C)C)NC(=O)[C@H](CCCNC(=N)N)NC(=O)[C@H](CCC(N)=O)NC(=O)[C@@H](NC(=O)[C@H](C)NC(=O)[C@@H]1CSSC[C@H](NC(=O)[C@@H](N)CCCCN)C(=O)N[C@@H](CC(N)=O)C(=O)N[C@@H]([C@@H](C)O)C(=O)N[C@@H](C)C(=O)N[C@@H]([C@@H](C)O)C(=O)N1)[C@@H](C)O)C(=O)N[C@@H](CC(C)C)C(=O)N1CCC[C@H]1C(=O)N1CCC[C@H]1C(=O)N[C@H](C(=O)N[C@@H](CC(N)=O)C(=O)N[C@H](C(=O)NCC(=O)N[C@@H](CO)C(=O)N[C@@H](CCC(=O)O)C(=O)N[C@H](C(=O)N[C@@H](Cc1ccc(O)cc1)C(N)=O)[C@@H](C)O)C(C)C)[C@@H](C)O
# B5: N-alpha-[(S)-4-Carboxy-4-(19-carboxynonadecanoylamino)butyryl]-[Gly1,Glu14,His17,Pro37]-pramlintide (peptide)
# peptide: X1-GCNTATCATQRLAEFLHHSSNNFGPILPPTNVGSNTP-NH2
# modifications: disulfide 2-7
# SMILES: CC[C@H](C)[C@H](NC(=O)[C@@H]1CCCN1C(=O)CNC(=O)[C@H](Cc1ccccc1)NC(=O)[C@H](CC(N)=O)NC(=O)[C@H](CC(N)=O)NC(=O)[C@H](CO)NC(=O)[C@H](CO)NC(=O)[C@H](Cc1c[nH]cn1)NC(=O)[C@H](Cc1c[nH]cn1)NC(=O)[C@H](CC(C)C)NC(=O)[C@H](Cc1ccccc1)NC(=O)[C@H](CCC(=O)O)NC(=O)[C@H](C)NC(=O)[C@H](CC(C)C)NC(=O)[C@H](CCCNC(=N)N)NC(=O)[C@H](CCC(N)=O)NC(=O)[C@@H](NC(=O)[C@H](C)NC(=O)[C@@H]1CSSC[C@H](NC(=O)CNC(=O)CC[C@H](NC(=O)CCCCCCCCCCCCCCCCCCC(=O)O)C(=O)O)C(=O)N[C@@H](CC(N)=O)C(=O)N[C@@H]([C@@H](C)O)C(=O)N[C@@H](C)C(=O)N[C@@H]([C@@H](C)O)C(=O)N1)[C@@H](C)O)C(=O)N[C@@H](CC(C)C)C(=O)N1CCC[C@H]1C(=O)N1CCC[C@H]1C(=O)N[C@H](C(=O)N[C@@H](CC(N)=O)C(=O)N[C@H](C(=O)NCC(=O)N[C@@H](CO)C(=O)N[C@@H](CC(N)=O)C(=O)N[C@H](C(=O)N1CCC[C@H]1C(N)=O)[C@@H](C)O)C(C)C)[C@@H](C)O
# B6: N-alpha-[(S)-4-Carboxy-4-(19-carboxynonadecanoylamino)butyryl]-Gly-[His1,Glu14,His17,Pro37]-pramlintide (peptide)
# peptide: {C20 diacid-γGlu}-GHCNTATCATQRLAEFLHHSSNNFGPILPPTNVGSNTP-NH2
# modifications: disulfide 3-8
# SMILES: CC[C@H](C)[C@H](NC(=O)[C@@H]1CCCN1C(=O)CNC(=O)[C@H](Cc1ccccc1)NC(=O)[C@H](CC(N)=O)NC(=O)[C@H](CC(N)=O)NC(=O)[C@H](CO)NC(=O)[C@H](CO)NC(=O)[C@H](Cc1c[nH]cn1)NC(=O)[C@H](Cc1c[nH]cn1)NC(=O)[C@H](CC(C)C)NC(=O)[C@H](Cc1ccccc1)NC(=O)[C@H](CCC(=O)O)NC(=O)[C@H](C)NC(=O)[C@H](CC(C)C)NC(=O)[C@H](CCCNC(=N)N)NC(=O)[C@H](CCC(N)=O)NC(=O)[C@@H](NC(=O)[C@H](C)NC(=O)[C@@H]1CSSC[C@H](NC(=O)[C@H](Cc2c[nH]cn2)NC(=O)CNC(=O)CC[C@H](NC(=O)CCCCCCCCCCCCCCCCCCC(=O)O)C(=O)O)C(=O)N[C@@H](CC(N)=O)C(=O)N[C@@H]([C@@H](C)O)C(=O)N[C@@H](C)C(=O)N[C@@H]([C@@H](C)O)C(=O)N1)[C@@H](C)O)C(=O)N[C@@H](CC(C)C)C(=O)N1CCC[C@H]1C(=O)N1CCC[C@H]1C(=O)N[C@H](C(=O)N[C@@H](CC(N)=O)C(=O)N[C@H](C(=O)NCC(=O)N[C@@H](CO)C(=O)N[C@@H](CC(N)=O)C(=O)N[C@H](C(=O)N1CCC[C@H]1C(N)=O)[C@@H](C)O)C(C)C)[C@@H](C)O
# How the values were obtained:
# [1] = molecular target: T1, human calcitonin (a) receptor; test: cell-based or functional assay
# [2] = molecular target: T2, human amylin 3(a) receptor (human …); test: cell-based or functional assay
Binder,CTa receptor human EC50 [1] [nM],Amylin receptor human EC50 [2] [nM]
B1,0.0525,0.055
B2,0.153,0.133
B3,0.286,0.12
B4,8.43,1.75
B5,0.052,0.054
B6,0.049,0.052
